Data on five compounds can be found in patent publication EP4755393A1, “USE OF PROTON PUMP REGULATOR IN PREPARATION OF DRUG” (Shanghai Quietd Biotechnology Co., Ltd., priority 2023, dated 2025).

Ends that are not written are not given here.

The target in one assay is hATP6V1B2 (Homo sapiens, UniProt P21281). The assay can be described thus: Co-immunoprecipitation of Myc-tagged hATP6V1B2 with GFP-tagged QD202 and site mutants (HEK 293 lysates, western blot). Format: binding. The conditions noted are these: expressed from pEGFP-N3 plasmids in HEK 293, anti-GFP IP, FIG. 7A, 7B. Here is the method: Expression plasmids of hATP6V1B2, QD202, site-mutated QD202(D15A), site-mutated QD202(V16A), site-mutated QD202(P13A), and site-mutated QD202(V14A) were constructed respectively. The hATP6V1B2 was co-transfected into HEK 293 cells with the expression plasmids of QD202, site-mutated QD202(D15A), site-mutated QD202(V16A), site-mutated QD202(P13A) and site-mutated QD202(V14A), respectively, and cellular proteins were extracted 48 h after transfection. Table 1: Plasmid sequences
Chain of hATP6V1B2 (P21281 whole entry): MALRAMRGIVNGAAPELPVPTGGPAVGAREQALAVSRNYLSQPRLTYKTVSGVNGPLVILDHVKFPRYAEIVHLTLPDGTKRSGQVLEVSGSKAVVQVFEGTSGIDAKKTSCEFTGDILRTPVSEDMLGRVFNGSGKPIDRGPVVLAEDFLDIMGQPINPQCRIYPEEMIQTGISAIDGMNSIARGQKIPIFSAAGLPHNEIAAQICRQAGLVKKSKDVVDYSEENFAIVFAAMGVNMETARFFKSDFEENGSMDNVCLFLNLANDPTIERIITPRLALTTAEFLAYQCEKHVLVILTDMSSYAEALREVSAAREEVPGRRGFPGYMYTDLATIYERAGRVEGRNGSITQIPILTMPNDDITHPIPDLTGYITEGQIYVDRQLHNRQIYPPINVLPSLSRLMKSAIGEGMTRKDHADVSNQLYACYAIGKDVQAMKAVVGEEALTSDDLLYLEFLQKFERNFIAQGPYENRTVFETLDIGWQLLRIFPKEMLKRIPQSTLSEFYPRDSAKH
Protein extraction was performed using Pierce RIPA lysis buffer. Taking cells in a 60 mm culture dish as an example, 500 µL of Pierce RIPA lysis buffer containing protease inhibitors was added. Cells were collected and transferred to a clean 1.5 mL EP tube using a cell scraper. After mixing for 1 h on a rotary mixer at 4°C, the cells were centrifuged at 13,000 rpm at 4°C for 10 min to remove cell debris. The hATP6V1B2 was equally divided into […], which were then mixed separately with the cell lysates transfected with QD202, site-mutated QD202(P13A), site-mutated QD202(V14A), site-mutated QD202(D15A), and site-mutated QD202(V16A), 30 µL of the supernatant was taken and mixed with 10 µL of 4× loading buffer, followed by boiling at 100°C for 5 min and storage at -20°C; 2 µL of the antibody (Anti-GFP, Roche, 11814460001) was added to the remaining 470 µL of the protein lysate, and the mixture was incubated overnight (about 16-18 h) on a rotary shaker at 4°C. 30 µL of Protein G Sepharose beads (Roche, 11243233001) were placed in an EP tube and washed three times with Pierce RIPA lysis buffer to eliminate interference from the original stock solution. The protein that had been incubated with the antibody overnight was added to the Sepharose beads, followed by mixing and incubation at 4°C for 2 h to ensure sufficient binding between the antibody and the protein. The mixture was centrifuged at 4000 rpm for 1 min. The supernatant was aspirated off, followed by the addition of 600 µL of Pierce RIPA lysis buffer. The tube was gently inverted, followed by centrifugation to collect the supernatant. The above steps were repeated three times to wash away non-specifically bound proteins. Finally, 30 µL of 1×loading buffer was added, the mixture was mixed well, heated at 60°C for 20 min to denature the protein, and then stored at -20°C. The protein was examined by western blot (Myc-Tag (9B11) Mouse mAb, CST, 2276S; Anti-GFP, Roche, 11814460001).
The hATP6V1B2 was co-transfected into the host cell line HEK 293 with the expression plasmids of QD202, site-mutated QD202(P13A), site-mutated QD202(V14A), site-mutated QD202(D15A) and site-mutated QD202(V16A), respectively. […] It is therefore hypothesized that valine at position 16 of QD202 is one of the key amino acids for the binding between hATP6V1B2 and QD202, whereas proline at position 13, valine at position 14 and aspartic acid at position 15 can be replaced with alanine, as illustrated in FIG. 7A and FIG. 7B.

Assay [1] concerns Male SD rats. The assay can be described thus: Neurological function scoring after MCAO (Middle Cerebral Artery Occlusion). In kind it is in vivo. The conditions noted are these: 5 mpk, from 3 days prior to surgery once daily plus doses on day of surgery; 24 h after MCAO; vs Model + QD202 placebo; FIG. 16. The text has this:
(§1) Experimental protocol: Male SD rats (260-280 g) were randomly assigned to the following groups: Sham + QD202 placebo group (n=6), Model + QD202 placebo group (n=6), positive control group (Edaravone-5 mpk, n=6), QD202-1 mpk group (n=6), QD202-3 mpk group (n=6), QD202-5 mpk group (n=6). The sham group served as the sham-operated group, while rats in the model group were subjected to Middle Cerebral Artery Occlusion (MCAO) for model establishment. For the edaravone-treated group, administration was initiated 3 days prior to surgery, once daily; on the day of surgery, a total of […] were given (30 min before surgery, 30 min after surgery, and 60 min after surgery). Rats in the QD202 groups received a single dose at 30 min after surgery. At 24 h postoperatively, neurological function was scored according to Table 3. Subsequently, the whole brain tissues of the rats were harvested for TTC staining to evaluate the infarct volume. […]

For assay [2], the system named is Male SD rats. The assay can be described thus: TTC staining of infarct volume after MCAO. In kind it is in vivo. Conditions: 5 mpk, from 3 days prior to surgery once daily plus doses on day of surgery, 24 h after MCAO, vs Model + QD202 placebo, FIG. 17.
Text: as §1

A further assay has as its system HT22 cells. The assay can be described thus: Quantitative detection of ROS (DCFH-DA) in the oxygen-glucose deprivation (OGD) cell model. In kind it is cell-based. Conditions: Mus musculus, HT-22, OGD 16 h, 24 h reoxygenation, OGD plus vehicle = 100%, mean ± standard deviation, read-out: inhibition rate of ROS. As to the method: Cell culture: Mouse hippocampal HT22 cells were cultured in DMEM and 10% serum at 37°C in a 5% CO2 incubator.
Oxygen-glucose deprivation (OGD) cell model: HT22 cells were seeded at a density of about 1 ×10^5 into 96-well plates and cultured for 24 h in a 37°C incubator with 5% CO2/95% air in DMEM and 10% serum. After placing HT22 cells in glucose-free medium, they were transferred to a sealed container containing a 5% CO2/95% N2 mixture and incubated at 37°C for 16 h. The glucose-free medium was then replaced with a normal medium containing glucose, and the mixture was incubated for 24 h in a 37°C incubator containing 5% CO2/95% air for reoxygenation.
Experimental grouping: Normally cultured HT22 cells were used as the control group. […] After 24 h of reoxygenation, quantitative detection of ROS was performed.
Quantitative detection of ROS: Reactive oxygen species were detected using the Beyotime reactive oxygen species detection kit and the fluorescent probe DCFH-DA. […] Observation was performed under a fluorescence microscope, followed by quantification of the average fluorescence intensity using Image J software.
Data analysis: Three parallel experiments were performed. The average fluorescence intensity of the OGD plus vehicle group was set as the standard value of 100% for normalization of the fluorescence intensity of cells in each group. […]

Consider “QD202(P13A): QD202 in which proline at position 13 was substituted with alanine; expressed from pEGFP-N3 plasmid (YGRKKRRQRRRSAVDVVCS; not fully specified)”, for which, in the assay with hATP6V1B2, the “binding to Myc-tagged hATP6V1B2 (co-immunoprecipitation)” value was “also bind to”.
Same read-out and setting: the value for “QD202(D15A): QD202 in which aspartic acid at position 15 was substituted with alanine; expressed from pEGFP-N3 plasmid (YGRKKRRQRRRSPVAVVCS; left off: large carriers)” was “also bind to”.
Still for that read-out and setting: the value for “QD202(V16A): QD202 in which valine at position 16 was substituted with alanine; expressed from pEGFP-N3 plasmid (YGRKKRRQRRRSPVDAVCS; not fully specified)” was “significantly reduced”.
The same measure, in the same setting: to “QD202(V14A): QD202 in which valine at position 14 was substituted with alanine; expressed from pEGFP-N3 plasmid (YGRKKRRQRRRSPADVVCS; not fully specified)” belongs “also bind to”.
By inhibition is commonly meant the change of the read-out against control, counted positive when it falls. As to `CC1=NN(c2ccccc2)C(=O)C1` [Edaravone], the neurobehavioral score entry in the assay with Male SD rats [1] was “significantly lower than that of the Model + QD202 placebo group with a statistically significant difference (p<0.01)”. Further, in the assay on Male SD rats [2], the infarct volume result was “significantly lower than that of the Model + QD202 placebo group, with a statistically significant difference (p<0.01)”. Further, the inhibition at 200 µM in the assay with HT22 cells was 63.8 ± 10.9%.
